What was measured:
Assay in all cases: holdup assay
Parameters in all cases: key: below the threshold = too weak to quantify, mostly under pKd 3.1 to 4
MPP7, Q5T2T1 = biological target: T1, MPP7, Q5T2T1
T1 sequence (Q5T2T1 134-230, limits assumed, looked up): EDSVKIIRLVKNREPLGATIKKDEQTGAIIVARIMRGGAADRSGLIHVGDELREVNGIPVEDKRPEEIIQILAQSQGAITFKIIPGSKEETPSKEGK

Inadl_5, Q8NI35 = biological target: Inadl_5, Q8NI35
LRRC7, Q96NW7 = biological target: T2, LRRC7, Q96NW7
T2 sequence (Q96NW7 1440-1537, limits assumed, looked up): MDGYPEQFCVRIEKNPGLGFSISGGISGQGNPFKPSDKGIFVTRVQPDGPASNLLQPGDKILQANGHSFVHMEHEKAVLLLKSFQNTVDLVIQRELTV

MAGI1_2, Q96QZ7 = biological target: MAGI1_2, Q96QZ7
Chain of MAGI1_2, Q96QZ7 (Q96QZ7 456-580): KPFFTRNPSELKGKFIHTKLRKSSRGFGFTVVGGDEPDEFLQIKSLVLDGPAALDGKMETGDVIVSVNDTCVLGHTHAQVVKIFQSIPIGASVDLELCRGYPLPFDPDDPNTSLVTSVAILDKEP

RADIL, Q96JH8 = biological target: T3, RADIL, Q96JH8
T3 sequence (Q96JH8 971-1071, limits assumed, looked up): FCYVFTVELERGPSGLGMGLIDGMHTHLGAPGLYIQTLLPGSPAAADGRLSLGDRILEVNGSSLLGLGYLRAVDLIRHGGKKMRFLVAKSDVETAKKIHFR

PARD3_3, Q8TEW0 = biological target: PARD3_3, Q8TEW0
Chain of PARD3_3, Q8TEW0 (Q8TEW0 582-685): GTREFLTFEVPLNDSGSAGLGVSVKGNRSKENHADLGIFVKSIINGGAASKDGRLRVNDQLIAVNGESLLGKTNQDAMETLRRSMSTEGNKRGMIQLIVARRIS

ARHGEF12, Q9NZN5-2 = biological target: ARHGEF12, Q9NZN5-2
Chain of ARHGEF12, Q9NZN5-2 (Q9NZN5 other isoform, or with tags, fused parts or gaps): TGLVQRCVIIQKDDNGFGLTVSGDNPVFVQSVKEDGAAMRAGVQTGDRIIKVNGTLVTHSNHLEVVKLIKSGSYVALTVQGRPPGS

LAP2, Q96RT1 = biological target: LAP2, Q96RT1
Chain of LAP2, Q96RT1 (Q96RT1 other isoform, or with tags, fused parts or gaps): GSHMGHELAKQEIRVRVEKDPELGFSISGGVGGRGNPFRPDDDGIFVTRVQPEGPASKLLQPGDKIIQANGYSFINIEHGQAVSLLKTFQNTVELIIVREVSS

RHPN1, Q8TCX5 = biological target: T4, RHPN1, Q8TCX5
T4 sequence (Q8TCX5 508-602, limits assumed, looked up): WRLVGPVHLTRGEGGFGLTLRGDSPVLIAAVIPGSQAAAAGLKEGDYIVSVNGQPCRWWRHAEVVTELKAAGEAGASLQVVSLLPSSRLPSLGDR

PICK1, Q9NRD5 = biological target: PICK1, Q9NRD5
Chain of PICK1, Q9NRD5 (Q9NRD5 17-115): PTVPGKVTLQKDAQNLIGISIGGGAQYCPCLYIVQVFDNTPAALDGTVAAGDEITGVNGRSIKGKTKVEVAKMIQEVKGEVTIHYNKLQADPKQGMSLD

HTRA4, P83105 = biological target: T5, HTRA4, P83105
T5 sequence (P83105 378-476, limits assumed, looked up): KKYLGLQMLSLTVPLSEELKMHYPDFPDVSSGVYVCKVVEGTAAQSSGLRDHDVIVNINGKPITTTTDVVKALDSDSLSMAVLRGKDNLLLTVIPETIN

PCLO, Q9Y6V0 = biological target: T6, PCLO, Q9Y6V0
T6 sequence (Q9Y6V0 4491-4600, limits assumed, looked up): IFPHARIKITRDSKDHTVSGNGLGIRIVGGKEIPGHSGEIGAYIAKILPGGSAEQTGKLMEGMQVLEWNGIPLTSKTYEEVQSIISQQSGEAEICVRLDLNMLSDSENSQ

DLG1_2, Q12959 = biological target: DLG1_2, Q12959
Chain of DLG1_2, Q12959 (Q12959 314-412): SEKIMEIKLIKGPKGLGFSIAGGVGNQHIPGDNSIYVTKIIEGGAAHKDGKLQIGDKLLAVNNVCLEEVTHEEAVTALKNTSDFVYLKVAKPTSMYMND

MAST2, Q6P0Q8 = biological target: MAST2, Q6P0Q8
Chain of MAST2, Q6P0Q8 (Q6P0Q8 1099-1202): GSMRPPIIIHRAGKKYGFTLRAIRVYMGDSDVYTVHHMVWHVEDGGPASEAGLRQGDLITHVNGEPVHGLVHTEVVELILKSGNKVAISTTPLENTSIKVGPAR

GRIP2_4, Q9C0E4 = biological target: GRIP2_4, Q9C0E4
Chain of GRIP2_4, Q9C0E4 (Q9C0E4 446-548): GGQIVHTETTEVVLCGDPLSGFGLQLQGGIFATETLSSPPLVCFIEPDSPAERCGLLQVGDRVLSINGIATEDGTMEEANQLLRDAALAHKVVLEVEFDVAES

DLG4_1, P78352 = biological target: DLG4_1, P78352
Chain of DLG4_1, P78352 (P78352 62-152): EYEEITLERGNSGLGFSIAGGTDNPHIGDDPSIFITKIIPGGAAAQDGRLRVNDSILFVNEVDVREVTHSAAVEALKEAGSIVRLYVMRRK

GRIP1_3, Q9Y3R0 = biological target: T7, GRIP1_3, Q9Y3R0
T7 sequence (Q9Y3R0 247-346, limits assumed, looked up): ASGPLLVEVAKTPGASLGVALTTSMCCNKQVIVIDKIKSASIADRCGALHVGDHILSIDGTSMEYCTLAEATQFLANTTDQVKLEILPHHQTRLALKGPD

LIN7A, O14910 = biological target: T8, LIN7A, O14910
T8 sequence (O14910 103-200, limits assumed, looked up): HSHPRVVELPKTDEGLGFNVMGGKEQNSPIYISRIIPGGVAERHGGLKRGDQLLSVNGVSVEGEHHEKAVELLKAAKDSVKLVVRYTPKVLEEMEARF

PDZRN3_1, Q9UPQ7 = biological target: T9, PDZRN3_1, Q9UPQ7
T9 sequence (Q9UPQ7 244-349, limits assumed, looked up): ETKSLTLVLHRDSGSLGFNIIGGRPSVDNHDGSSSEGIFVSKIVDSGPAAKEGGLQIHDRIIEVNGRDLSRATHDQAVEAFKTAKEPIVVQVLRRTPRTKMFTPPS

NHERF3_4, Q5T2W1 = biological target: T10, NHERF3_4, Q5T2W1
T10 sequence (Q5T2W1 373-468, limits assumed, looked up): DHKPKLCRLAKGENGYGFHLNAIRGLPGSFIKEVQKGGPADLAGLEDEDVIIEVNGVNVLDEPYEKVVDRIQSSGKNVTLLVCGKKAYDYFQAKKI

IL16_1, Q14005 = biological target: IL16_1, Q14005
Chain of IL16_1, Q14005 (Q14005 210-306): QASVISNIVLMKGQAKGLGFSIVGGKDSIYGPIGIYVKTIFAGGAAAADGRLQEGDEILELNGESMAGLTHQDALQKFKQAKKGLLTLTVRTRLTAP

NHERF3_1, Q5T2W1 = biological target: T11, NHERF3_1, Q5T2W1
T11 sequence (Q5T2W1 4-100, limits assumed, looked up): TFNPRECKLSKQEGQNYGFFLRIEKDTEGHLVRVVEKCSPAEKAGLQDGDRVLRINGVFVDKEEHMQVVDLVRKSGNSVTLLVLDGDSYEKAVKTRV

DFNB31_1, Q9P202 = biological target: T12, DFNB31_1, Q9P202
T12 sequence (Q9P202 135-233, limits assumed, looked up): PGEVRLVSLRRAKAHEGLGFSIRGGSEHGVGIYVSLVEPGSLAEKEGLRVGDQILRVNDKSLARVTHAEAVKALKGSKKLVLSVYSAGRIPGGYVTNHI

Inadl_2, Q8NI35 = biological target: Inadl_2, Q8NI35
Chain of Inadl_2, Q8NI35 (Q8NI35 238-335): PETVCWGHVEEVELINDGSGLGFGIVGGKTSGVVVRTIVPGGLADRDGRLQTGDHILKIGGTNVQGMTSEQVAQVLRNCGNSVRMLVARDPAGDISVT

[1] = plain residues with an end cap or a label only (N-terminal biotin on a linker: ttds)
[2] = plain residues with an end cap or a label only (N-terminal biotin on a linker: ahx)

Chain of Inadl_5, Q8NI35 (Q8NI35 673-780): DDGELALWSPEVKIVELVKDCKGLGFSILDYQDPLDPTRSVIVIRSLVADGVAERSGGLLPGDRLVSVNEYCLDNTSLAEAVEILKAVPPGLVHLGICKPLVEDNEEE

B1: HPV18-E6, P06463 (peptide)
chain: RLQRRRETQV
pKd (MPP7, Q5T2T1; [1]): below the threshold | pKd (Inadl_5, Q8NI35; [1]): 3.52 | pKd (LRRC7, Q96NW7; [1]): 3.14 | pKd (MAGI1_2, Q96QZ7; [1]): 5.97 | pKd (RADIL, Q96JH8; [1]): 3.28 | pKd (PARD3_3, Q8TEW0; [1]): below the threshold | pKd (ARHGEF12, Q9NZN5-2; [1]): 3.91 | pKd (LAP2, Q96RT1; [1]): 3.61 | pKd (RHPN1, Q8TCX5; [1]): 3.63 | pKd (PICK1, Q9NRD5; [1]): below the threshold | pKd (HTRA4, P83105; [1]): below the threshold | pKd (PCLO, Q9Y6V0; [1]): below the threshold | pKd (DLG1_2, Q12959; [1]): 5.78 | pKd (MAST2, Q6P0Q8; [1]): 4.78 | pKd (GRIP2_4, Q9C0E4; [1]): below the threshold | pKd (DLG4_1, P78352; [1]): 5.11 | pKd (GRIP1_3, Q9Y3R0; [1]): below the threshold | pKd (LIN7A, O14910; [1]): 3.4 | pKd (PDZRN3_1, Q9UPQ7; [1]): 4.82 | pKd (NHERF3_4, Q5T2W1; [1]): below the threshold | pKd (IL16_1, Q14005; [1]): below the threshold | pKd (NHERF3_1, Q5T2W1; [1]): 4.05 | pKd (DFNB31_1, Q9P202; [1]): below the threshold | pKd (Inadl_2, Q8NI35; [1]): below the threshold

B2: TJP3, O95049 (peptide)
chain: GYDWGPATDL
pKd (MPP7, Q5T2T1; [2]): below the threshold | pKd (Inadl_5, Q8NI35; [2]): below the threshold | pKd (LRRC7, Q96NW7; [2]): 3.7 | pKd (MAGI1_2, Q96QZ7; [2]): below the threshold | pKd (RADIL, Q96JH8; [2]): below the threshold | pKd (PARD3_3, Q8TEW0; [2]): 3.66 | pKd (ARHGEF12, Q9NZN5-2; [2]): 4.66 | pKd (LAP2, Q96RT1; [2]): 3.73 | pKd (RHPN1, Q8TCX5; [2]): 5.36 | pKd (PICK1, Q9NRD5; [2]): below the threshold | pKd (HTRA4, P83105; [2]): below the threshold | pKd (PCLO, Q9Y6V0; [2]): below the threshold | pKd (DLG1_2, Q12959; [2]): 3.61 | pKd (MAST2, Q6P0Q8; [2]): 5.77 | pKd (GRIP2_4, Q9C0E4; [2]): below the threshold | pKd (DLG4_1, P78352; [2]): 3.53 | pKd (GRIP1_3, Q9Y3R0; [2]): below the threshold | pKd (LIN7A, O14910; [2]): 3.66 | pKd (PDZRN3_1, Q9UPQ7; [2]): 3.69 | pKd (NHERF3_4, Q5T2W1; [2]): below the threshold | pKd (IL16_1, Q14005; [2]): below the threshold | pKd (NHERF3_1, Q5T2W1; [2]): below the threshold | pKd (DFNB31_1, Q9P202; [2]): 4.11 | pKd (Inadl_2, Q8NI35; [2]): below the threshold

B3: SLC16A3, O15427 (peptide)
chain: EVVHTPETSV
pKd (MPP7, Q5T2T1; [1]): below the threshold | pKd (Inadl_5, Q8NI35; [1]): below the threshold | pKd (LRRC7, Q96NW7; [1]): below the threshold | pKd (MAGI1_2, Q96QZ7; [1]): below the threshold | pKd (RADIL, Q96JH8; [1]): below the threshold | pKd (PARD3_3, Q8TEW0; [1]): below the threshold | pKd (ARHGEF12, Q9NZN5-2; [1]): 3.89 | pKd (LAP2, Q96RT1; [1]): 3.81 | pKd (RHPN1, Q8TCX5; [1]): 4.24 | pKd (PICK1, Q9NRD5; [1]): below the threshold | pKd (HTRA4, P83105; [1]): below the threshold | pKd (PCLO, Q9Y6V0; [1]): below the threshold | pKd (DLG1_2, Q12959; [1]): 4.3 | pKd (MAST2, Q6P0Q8; [1]): 5.16 | pKd (GRIP2_4, Q9C0E4; [1]): below the threshold | pKd (DLG4_1, P78352; [1]): 3.9 | pKd (GRIP1_3, Q9Y3R0; [1]): below the threshold | pKd (LIN7A, O14910; [1]): below the threshold | pKd (PDZRN3_1, Q9UPQ7; [1]): 4.42 | pKd (NHERF3_4, Q5T2W1; [1]): below the threshold | pKd (IL16_1, Q14005; [1]): 3.6 | pKd (NHERF3_1, Q5T2W1; [1]): below the threshold | pKd (DFNB31_1, Q9P202; [1]): 3.86 | pKd (Inadl_2, Q8NI35; [1]): below the threshold
